Data published in US6942981.
Ends that are not written are not given here. * marks the point of attachment. Biotin = O=C1N[C@H]2[C@H](CS[C@H]2CCCCC(=O)*)N1

Assays:
Assay in all cases: A/G assays
[1] = target: T1, GST-CBP (Cytohesin binding protein HE) PDZ domain fusion protein (Homo sapiens (Human), UniProt O60759 74-165)
T1 construct: not shown: glutathione S-transferase (GST) encoded by pGEX-3X
T1 sequence: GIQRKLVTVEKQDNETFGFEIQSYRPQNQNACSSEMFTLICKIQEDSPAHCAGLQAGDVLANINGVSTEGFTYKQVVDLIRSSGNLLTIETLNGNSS

[2] = target: T2, GST-MINT3 PDZ domain fusion protein (human)
T2 construct: also called human MINT3; not shown: glutathione S-transferase (GST) encoded by pGEX-3X
T2 chain: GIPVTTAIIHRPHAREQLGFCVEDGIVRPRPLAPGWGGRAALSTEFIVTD

[3] = target: T3, GST-KIAA0303 PDZ domain fusion protein (Homo sapiens (Human), UniProt O15021 1138-1229)
T3 construct: also called K303; not shown: glutathione S-transferase (GST) encoded by pGEX-3X
T3 sequence: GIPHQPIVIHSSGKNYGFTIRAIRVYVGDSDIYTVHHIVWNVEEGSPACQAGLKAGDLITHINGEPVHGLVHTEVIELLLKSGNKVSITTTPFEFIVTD

[4] = target: T4, GST-DVL1 PDZ domain fusion protein (human)
T4 construct: also called human dishevelled segment polarity protein homolog; not shown: glutathione S-transferase (GST) encoded by pGEX-3X
T4 chain: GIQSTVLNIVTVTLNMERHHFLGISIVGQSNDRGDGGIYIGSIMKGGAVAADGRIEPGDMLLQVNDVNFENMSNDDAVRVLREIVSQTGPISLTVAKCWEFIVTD

[5] = target: T5, GST-MPP1 PDZ domain fusion protein (Homo sapiens (Human), UniProt Q00013 67-152)
T5 construct: also called 55 Kd erythrocyte membrane protein; not shown: glutathione S-transferase (GST) encoded by pGEX-3X
T5 sequence: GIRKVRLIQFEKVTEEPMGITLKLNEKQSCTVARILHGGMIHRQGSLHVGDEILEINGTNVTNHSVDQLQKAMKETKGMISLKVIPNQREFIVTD

[6] = target: T6, GST-TAX43 PDZ domain fusion protein (human, UniProt Q13884 109-180)
T6 construct: not shown: glutathione S-transferase (GST) encoded by pGEX-3X
T6 sequence: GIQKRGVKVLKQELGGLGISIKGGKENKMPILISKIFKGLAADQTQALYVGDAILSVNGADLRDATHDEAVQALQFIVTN

[7] = target: T7, GST-SYN1a (alpha1-syntrophin) PDZ domain fusion protein (Homo sapiens (Human), UniProt Q13424 84-179)
T7 construct: also called SYN 1 α; not shown: glutathione S-transferase (GST) encoded by pGEX-3X
T7 sequence: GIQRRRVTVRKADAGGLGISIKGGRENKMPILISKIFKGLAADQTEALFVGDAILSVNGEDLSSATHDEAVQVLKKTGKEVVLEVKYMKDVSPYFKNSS

[8] = target: T8, GST-KIAA0316 PDZ domain fusion protein (Homo sapiens (Human), UniProt Q14CM0 72-159)
T8 construct: also called K316; not shown: glutathione S-transferase (GST) encoded by pGEX-3X
T8 sequence (Q14CM0 other isoform, or with tags, fused parts or gaps): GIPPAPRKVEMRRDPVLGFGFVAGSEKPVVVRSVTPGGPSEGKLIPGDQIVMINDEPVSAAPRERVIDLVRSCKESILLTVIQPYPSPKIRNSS

[9] = target: T9, GST-LIM (Human LIM protein) PDZ domain fusion protein (human, UniProt Q96HC4 2-85)
T9 construct: not shown: glutathione S-transferase (GST) encoded by pGEX-3X
T9 sequence: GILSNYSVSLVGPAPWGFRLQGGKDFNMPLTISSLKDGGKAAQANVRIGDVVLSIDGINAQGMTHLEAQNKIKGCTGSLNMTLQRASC

[10] = target: T10, GST-RGS12 PDZ domain fusion protein (human, UniProt O14924 17-85)
T10 construct: also called human regulator of G-protein signalling 12; not shown: glutathione S-transferase (GST) encoded by pGEX-3X
T10 sequence: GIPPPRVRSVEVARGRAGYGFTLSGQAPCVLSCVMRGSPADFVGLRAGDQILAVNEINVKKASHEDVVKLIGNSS

[11] = target: T11, GST-KIAA0559 PDZ domain fusion protein (Homo sapiens (Human), UniProt Q9Y6V0 4489-4594)
T11 construct: also called K559; not shown: glutathione S-transferase (GST) encoded by pGEX-3X
T11 sequence: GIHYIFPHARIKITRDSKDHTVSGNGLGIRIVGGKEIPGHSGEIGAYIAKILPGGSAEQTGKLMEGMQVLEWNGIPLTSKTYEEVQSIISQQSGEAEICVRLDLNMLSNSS

[12] = target: T12, GST-prIL16 PDZ domains 1-2 fusion protein (Homo sapiens (Human), UniProt Q14005 1110-1325)
T12 construct: also called putative interleukin 16 precursor; not shown: glutathione S-transferase (GST) encoded by pGEX-3X
T12 sequence: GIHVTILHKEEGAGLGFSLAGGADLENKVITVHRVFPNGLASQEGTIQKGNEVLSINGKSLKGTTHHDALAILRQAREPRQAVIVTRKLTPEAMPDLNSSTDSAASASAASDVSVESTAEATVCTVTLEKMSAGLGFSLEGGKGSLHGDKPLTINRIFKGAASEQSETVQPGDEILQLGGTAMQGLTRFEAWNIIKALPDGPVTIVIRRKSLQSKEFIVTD

[13] = target: T13, GST-NOS1 PDZ domain fusion protein (human, UniProt P29475 11-101)
T13 construct: also called human neuronal nitric oxide synthase; not shown: glutathione S-transferase (GST) encoded by pGEX-3X
T13 sequence (P29475 other isoform, or with tags, fused parts or gaps): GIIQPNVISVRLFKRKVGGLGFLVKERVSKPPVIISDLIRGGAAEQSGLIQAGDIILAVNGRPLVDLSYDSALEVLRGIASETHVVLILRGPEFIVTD

[14] = target: T14, GST-TAX40 PDZ domain fusion protein (human, UniProt Q6B4M5 150-251 (rat entry))
T14 construct: not shown: glutathione S-transferase (GST) encoded by pGEX-3X
T14 sequence: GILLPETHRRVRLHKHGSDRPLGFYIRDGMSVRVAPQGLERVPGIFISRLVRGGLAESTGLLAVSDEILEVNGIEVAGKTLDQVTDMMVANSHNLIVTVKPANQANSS

[15] = target: T15, GST-LIMK2 PDZ domain fusion protein (human, UniProt P53671 147-237)
T15 construct: also called human LIM domain kinase 2; not shown: glutathione S-transferase (GST) encoded by pGEX-3X
T15 sequence: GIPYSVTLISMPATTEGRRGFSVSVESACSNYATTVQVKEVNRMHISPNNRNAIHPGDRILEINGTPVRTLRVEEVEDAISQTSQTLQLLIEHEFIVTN

[16] = target: T16, GST-41.8 kD (hypothetical 41.8 kD protein) PDZ domain fusion protein (Mus musculus (Mouse), UniProt Q9EQZ7 682-763)
T16 construct: not shown: glutathione S-transferase (GST) encoded by pGEX-3X
T16 sequence: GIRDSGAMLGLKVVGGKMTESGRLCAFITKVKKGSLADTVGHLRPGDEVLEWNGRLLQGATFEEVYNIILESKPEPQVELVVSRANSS

Measured: binding result

B1: CD34 C-terminal peptide AA7L (peptide)
peptide: Biotin-QATSRNGHSARQHVVADTEL
no binding: all assays above

B2: CD148 peptide AA55L (ending KTIA) (peptide)
peptide: Biotin-TIYENLAPVTTFGKTIA
no binding: all assays above
